Reference: US20060134746, “Adding photoregulated amino acids to the genetic code” (The Scripps Research Institute, published 2006)

How the values were obtained:
[1] = tested on: CAP (catabolite activator protein) wild-type (Escherichia coli); experiment: EMSA; conditions: 20 uM cAMP, 10 mM Tris pH 7.5, 50 mM NaCl, 1 mM MgCl2, 25 C; approximate value
[2] = tested on: CAP70TAG azobenzyl-Phe mutant, irradiated at 334 nm (about 50% cis) I70(azobenzyl-Phe) (Escherichia coli); experiment: EMSA; conditions: 20 uM cAMP, 25 C; after 334 nm irradiation 40 min at 0 C, photostationary state about 50% cis
[3] = tested on: CAP70TAG azobenzyl-Phe mutant, trans (before irradiation) I70(azobenzyl-Phe) (Escherichia coli); experiment: EMSA; conditions: 20 uM cAMP, 25 C; approximate value; 4-fold lower than wt; same value recovered after switching back with light >=420 nm
[4] = target: E. coli leucyl-tRNA synthetase (ecLRS) wild-type (Escherichia coli, UniProt P07813 SEQ:1-860); experiment: cell_activity; amber suppression of GAL4 (2 TAG) in S. cerevisiae, beta-galactosidase; printed as 104-fold increase (10^4) over either component alone
From the text: The orthogonality of the E. coli leucyl suppressor tRNACUA (Leu5CUA) (FIG. 1A), which has U35 and A37 in the anticodon loop, and the corresponding ecLRS was examined in vivo in a selection strain of S. cerevisiae [MaV203:pGADGAL4(2 TAG)]. See Chin, et al., Science, 2003, 301:964-7. This strain harbors the transcriptional activator GAL4 with amber codons at two permissive sites (Thr44 and Arg110). Efficient suppression at both sites leads to expression of three reporter genes: lacZ, his3, and ura3. In the presence of either Leu5CUA or ecLRS alone, no significant β-galactosidase activity was detected above the residual activity in lysates from […] cells. […] See ibid.

Sequence of E. coli leucyl-tRNA synthetase (ecLRS) wild-type (P07813 whole entry, the tested form may be a part): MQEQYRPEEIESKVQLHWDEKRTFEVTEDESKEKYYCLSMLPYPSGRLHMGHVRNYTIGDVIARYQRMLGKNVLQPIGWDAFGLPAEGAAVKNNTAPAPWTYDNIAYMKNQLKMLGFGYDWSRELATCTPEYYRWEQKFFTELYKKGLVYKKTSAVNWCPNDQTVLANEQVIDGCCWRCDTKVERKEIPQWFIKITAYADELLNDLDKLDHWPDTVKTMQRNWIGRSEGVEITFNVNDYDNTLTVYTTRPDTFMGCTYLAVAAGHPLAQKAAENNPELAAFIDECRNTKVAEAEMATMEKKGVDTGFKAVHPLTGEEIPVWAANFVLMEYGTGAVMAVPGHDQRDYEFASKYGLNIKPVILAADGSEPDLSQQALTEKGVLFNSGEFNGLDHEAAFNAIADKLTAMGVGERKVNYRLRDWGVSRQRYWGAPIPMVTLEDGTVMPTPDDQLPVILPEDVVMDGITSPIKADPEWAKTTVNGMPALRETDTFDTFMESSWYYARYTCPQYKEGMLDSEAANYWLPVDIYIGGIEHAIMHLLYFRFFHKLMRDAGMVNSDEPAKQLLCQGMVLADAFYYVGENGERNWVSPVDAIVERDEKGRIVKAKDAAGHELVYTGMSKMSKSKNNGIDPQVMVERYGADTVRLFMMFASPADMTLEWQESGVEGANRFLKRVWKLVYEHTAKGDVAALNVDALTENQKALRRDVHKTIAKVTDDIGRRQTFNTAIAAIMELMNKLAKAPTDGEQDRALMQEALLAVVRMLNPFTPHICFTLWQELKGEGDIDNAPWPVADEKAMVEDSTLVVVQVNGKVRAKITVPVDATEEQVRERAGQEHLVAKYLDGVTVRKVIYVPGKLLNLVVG

118 bp lac promoter fragment with primary CAP site
Ka [1]: 1.6e+07 M⁻¹ | Ka [2]: 1e+06 M⁻¹ | Ka [3]: 4e+06 M⁻¹

B1: Leu5CUA amber suppressor tRNA (ssRNA)
RNA: GCCCGGAUGGUGGAAUCGGUAGACACAAGGGAUUCUAAAUCCCUCGGCGUUCGCGCUGUGCGGGUUCAAGUCCCGCUCCGGGUACCA
activity [4]: > 10000 fold
